From paper PMC2959089, “The intriguing Cyclophilin A-HIV-1 Vpr interaction: prolyl cis/trans isomerisation catalysis and specific binding” (BMC Structural Biology, 2010)

Molecular target: T1, recombinant human Cyclophilin A (CypA) (human, UniProt P62937 1-165)
T1 construct: also called human peptidyl prolyl isomerase CypA; source: E. coli BL21(DE3), pET11c, purified (DEAE-Sepharose flow-through, MonoS cation exchange)
Experiment: SPR
Details: both partners purified

T1 sequence (P62937 whole entry): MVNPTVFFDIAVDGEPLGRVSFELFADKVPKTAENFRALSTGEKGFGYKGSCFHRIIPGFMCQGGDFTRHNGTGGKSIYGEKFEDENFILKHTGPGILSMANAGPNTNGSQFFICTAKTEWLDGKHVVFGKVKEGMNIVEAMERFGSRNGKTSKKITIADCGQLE

| Binder | Kd [µM] | ka1 (two-state model, association) [M⁻¹ s⁻¹] | ka2 (two-state model, forward rate) [s⁻¹] | kd1 (two-state model, dissociation) [s⁻¹] | kd2 (two-state model, backward rate) [s⁻¹] |
| --- | --- | --- | --- | --- | --- |
| ELLEELKSEAVRHFPRIWLH (source: synthetic peptide) [synthetic HIV-1 Vpr peptide sVpr^21-40] | 201 | 466 | 0.0084 | 0.164 | 0.011 |
| ELKSEAVRHFPRIWLH (source: synthetic peptide) [synthetic HIV-1 Vpr peptide sVpr^25-40] | 404 | 2000 | 0.0028 | 0.942 | 0.0173 |
| AVRHFPRIWLH (source: synthetic peptide) [synthetic HIV-1 Vpr peptide sVpr^30-40] | 167 | 2470 | 0.00145 | 0.527 | 0.0053 |
| RHFPRIW (source: synthetic peptide) [synthetic HIV-1 Vpr peptide sVpr^32-38] | 487 | 924 | 0.0011 | 0.67 | 0.0023 |
| HFPRI (source: synthetic peptide) [synthetic HIV-1 Vpr peptide sVpr^33-37] | 3570 | 120 | 0.00138 | 0.66 | 0.0025 |
